From a protein production outcome set (Wang et al. 2014) come the findings set out here.

The series in a line: label from the status in PepcDB records.
Take “MKYIRKSISIFAVLALVFILSFGNVSAGTIYESKTKETVTSGVTLETITRFTDDGWQKINVLRVDLENPNVKVDTLIDSESIKKLTNVKNLAQSAGAVAAVNAGFFNWLKGESGKGYPDGPVIKSGEFLSVDSEYNRYNNSMATIAIDKDNNVYFDFWKTDITLHAPDGSTTRVFQYNKPSPFQYTDITIWTSAWDKYSLGVSQQYPDLVEVVVDNGTVVEIRQGLPAVEIPQNGYVIISRGANAQFLLQHFKVGDPVEISFSTVLDWQKIEMAVTGSAILVKDGQIPEKFSYEISGVHPRTAAGTSKSGKELILVTVDGRQAASKGMTQRELANLMLSLGAYNAINLDGGGSTSMVSRIPGTNDLKVVNTPSDGALRSISTAIGVFSVAPPSELAGMIIETQPNVFVNSSTTLTVKGYDKYFNPVSVDPNSINWSVSGIKGSFAGNVFRAESSGIGTITATVNGIKASTTIRALEAPNKLILSTTKLNLLKGSSYSFTVKGVDNNGYSSYINFADINWTVNGDIATIEKNKITAVKPGTGYIEAAFGDARAYCAVSVASESTYLVDDFEKKNGSFETVPANLPGSYELSSEVKKSGNYSGKLSYDFSYLEGTRAAYLVFPNGGIDLDGNTVEITMMVNNPQQNPNWLRAEVIDSGGQKHLVDFTRDLTWTGWGRVFASLRDIKSPAKLTKIYVVQVNPVPSSGCIYIDDLSLVKATFPEINESTIPKDVVLSDRDNKEAALNKDSIKISVFSGKSNPENMLQKLLNTKFYNKVKADGYMKSIQDISNINTNTHVDIGGTRLITLNTTDKSIRTSASGQWQWFFDKLNSHTGDNIFIFMKNSPDTFVDPLEAKLFKDILIEHKEKTGKNIWVFYGNSSETYYADNGIKYFGVAGLNIGGLTPDNAKNVKYIEITVNGKEVSYQYKSPLK”: the protein production entry was “failed”.

Turning to “MMAAREQRSFRQLSLLRQFEGQSLLCASMNIPGPIKCSESLNKTFQSIINLVKEDLRGRIIFEREVHQKTGWEYYCLSDLPVSELKTKMIAIETKISIGRLMDLDVLHLVNGIPQPISRQELGFPRRQCYICQNDAKVCSRSRKHSVIEMQEAIAKFIKINH”, the protein production result is “failed”.

Turning to “MPQSSRYSDEHVEQLLSEMVNVLEKHHAPTDLALMVLGNMVTNLINTSIAPAQRQILARSFAEALQASIKKADKAHLEHHHHHH”, the protein production result is “failed”.

For the sequence “MRMNIRVALPQAQVHWCRGWLQAAHADALMQALLDQVQWEVHRIRMFGRVVDSPRLSSWIGDADASYRYSGTQFAPQPWLEALQPVRTRLQDETGSPFNSVLVNRYRSGADAMGWHSDDEPELGAQPVIASLSLGAARRFAFKHRHDAALKQTLELGHGDLLLMGGDTQRHYKHALPRTVKPVGERINLTFRQIAVRVSQRLEHHHHHH”, the protein production result is recorded as “failed”.

As to “MDSGCWLFGGEFEDSVFEERPERRSGPPASYCAKLCEPQWFYEETESSDDVEVLTLKKFKGDLAYRRQEYQKALQEYSSISEKLSSTNFAMKRDVQEGQARCLAHLGRHMEALEIAANLENKATNTDHLTTVLYLQLAICSSLQNLEKTIFCLQKLISLHPFNPWNWGKLAEAYLNLGPALSAALASSQKQHSFTSSDKTIKSFFPHSGKDCLLCFPETLPESSLFSVEANSSNSQKNEKALTNIQNCMAEKRETVLIETQLKACASFIRTRLLLQFTQPQQTSFALERNLRTQQEIEDKMKGFSFKEDTLLLIAEVMGEDIPEKIKDEVHPEVKCVGSVALTALVTVSSEEFEDKWFRKIKDHFCPFENQFHTEIQILA”, the protein production result is reported as “failed”.

In the case of “MLVFLTRFTPMNLIRNRWAQIFTQSILGVLIAGGTAWAGDPFRPNNPHNIGDQTEAAFEAIFRDGNYRGAEEILAGAIQAEPNEPLVYAMQASFAYDANDMEGMRKYAQQTLESAQRLAPSDPLRGNLYIAVGHFLEGSYLLKKGSYLQAVGKTGTVFEHLDKASAINPNDPELNLLRGYLDLFLSRYTPFSQSEQVISRFEQYAAPDYLRYRALATTYRDLEKYDLAMANIDRALAITPDNPELQYLKGQFLRNEGRRSMDLGKLQQAQQYYAMALQKQDQLSRALVVQLNHENNAVVDEIQKLAQNPSLKGF”, the protein production entry was “failed”.

On to “ACDNDTEPGGTAVEKMAGDWWVTVNAFIDGKEVEDPFGAGHLQMSTYNTASNSETEMWLDDLGNFWEYKLKVNVNYAARTFSTTGFVDNVTYESKVKITDGKVLEKAATTPSGMPADSIVYMVQFDDDEDGLTYKVSGFRRTGFPADDF”, for which the protein production result was “not failed”.

In the case of “MTPAAHPPRAAIADIAGHLPEQVLTNDVLAQLYPDWPAEKILAKTGIRERRIAAPRETAADLAYEAARKLFAQGAVGADQVDFVILCTQAPDYVLPTSACMLQHRLGIPTHAGALDVNLGCSGYVYGLSLAKGLVETGAARCVLLLTADTYSKYLHPLDKSVRTLFGDGASATAVIAEHGELERIGPFVFGTDGRGAPNLIVKAGLFREPKSADSAREHEDASGNVRTDEHLYMNGAEVMAFSLAEVPRAADRLLALAGEPRENIDCFVLHQANRFMLDALRKKMKIPEHKFPVLMEHCGNTVSSTLPLALETMRANGTLARGMRLMLLGFGVGYSWAGCLVNF”, the protein production result is on record as “not failed”.

Take “MKRLFIASLLAFAPFTWALDQAGSQRLSDLQQRWAQIQYQMPKDKRADAFEKLAGDAATFVRQYPGTPEPLIWEGIINSSWAGATGGLGALGKVKAAKASLEQAMKLDPAALQGSAYTSLGTLYDQVPGWPIGFGDAEMADKMLRKALQINPNGIDSNYFWADHLYRQKRYPEATAALQKALQAPPRPGRELADQGRRADIDALLKTIKDKQD”: the protein production result is recorded as “failed”.

Regarding “MVSSSLSLTTLAGGTLLLKGSPSTLFYKHGRTLFIVDPGHGRKRAKQISKAAEKLGGEAVAIITHFHSDHLSTLYQGFQPSTALAPVKDLAMVQDRVMRLHYTFGYPFTGAEDYLLFKAEDVDNVEPLEAERIKPLRLVPLPGHTPGQTGVETPDGVLYAADSIFGERVLQTYAVPYHSNPCQALETLTRLRDRVNRLEVIVPSHGKPVKGEEAERLLEMNIERLEDAWTALTEELSRAPASVGLLASTLMKRYGAEATPTLAILVETAVRGYIGCHGAELEPILESGVVKWRVRRR”, the protein production entry is on record as “failed”.

As for “MSLAQKLRQASSRLLGVVFELQQPFHGDLVEQIYAAATRRGYDVMLSAVAPSRAEKVAVQALMRERCEAAILLGTRFDTDELGALADRVPALVVARASGLPGVGAVRGDDVAGITLAVDHLTELGHRNIAHIDGADAPGGADRRAGFLAAMDRHGLSASATVVTGGTTETEGAEGMHTLLEMPTPPTAVVAFNDRCATGVLDLLVRSGRDVPADISVVGYDDSRLARIPHVQMTTISQDATHMAEAAVDGALAQISGDKAVDLVLAPHLVRRATTGPVAHREGHHHHHH”, the protein production result is reported as “not failed”.

As for “MSRSTLQPARISRVLPDSIAAEIGFEPGDAIISINGQQPRDLIDYQFLCSDEFLELEVLDAAGRSHQIEIEKDTDEGLGLEFETALFDGLIQCNNRCPFCFIDQQPPGKRESLYYKDDDYRLSFLYGSYLTLTNLSEAEWRRIAQLRLSPLYVSVHATEPDLRRRLLKNERAGLIGEQLHWFRQQQLQIHAQVVVCPDLNDGAQLQRTLMDLAEFHRGDPATVASVAVVPVGLTRFRPTEDELRPVQPADAAATIALVEALQTQFQTELGSRFAWLADEWYLIAGQPLPSASWYEQYPQLENGVGSIRAFISEFERQAATLPSQIEPARRLTWVVGNVVGQAFQPLQARLNAVQGLKVDLVGLASRYWGQTLTVTGLLTGQDLIEVLSDRDLGDGLLLPSLILLHGYRCFLDDLTVAEVEKALHTPIFVAEGITGLLTECLRSPLAATVQDH”, the protein production entry was “failed”.

Take “MKVVVQIKDFDKVPQALRSVINLYNDIKDAEIEVVLHQSAIKALLKDSDTRSIIEDLIKKNILIVGCENSIRSQNLSHDQLIPGIKIVTSGVGEIVRKQSEGWIYLAL”: the protein production result is “not failed”.

On to “MSLWQPLVLVLLVLGCCFAAPRQRQSTLVLFPGDLRTNLTDRQLAEEYLYRYGYTRVAEMRGESKSLGPALLLLQKQLSLPETGELDSATLKAMRTPRCGVPDLGRFQTFEGDLKWHHHNITYWIQNYSEDLPRAVIDDAFARAFALWSAVTPLTFTRVYSRDADIVIQFGVAEHGDGYPFDGKDGLLAHAFPPGPGIQGDAHFDDDELWSLGKGVVVPTRFGNADGAACHFPFIFEGRSYSACTTDGRSDGLPWCSTTANYDTDDRFGFCPSERLYTRDGNADGKPCQFPFIFQGQSYSACTTDGRSDGYRWCATTANYDRDKLFGFCPTRADSTVMGGNSAGELCVFPFTFLGKEYSTCTSEGRGDGRLWCATTSNFDSDKKWGFCPDQGYSLFLVAAHEFGHALGLDHSSVPEALMYPMYRFTEGPPLHKDDVNGIRHLYGPRPEPEPRPPTTTTPQPTAPPTVCPTGPPTVHPSERPTAGPTGPPSAGPTGPPTAGPSTATTVPLSPVDDACNVNIFDAIAEIGNQLYLFKDGKYWRFSEGRGSRPQGPFLIADKWPALPRKLDSVFEEPLSKKLFFFSGRQVWVYTGASVLGPRRLDKLGLGADVAQVTGALRSGRGKMLLFSGRRLWRFDVKAQMVDPRSASEVDRMFPGVPLDTHDVFQYREKAYFCQDRFYWRVSSRSELNQVDQVGYVTYDILQCPED”, for which the protein production entry is “not failed”.

“NQLLGMHQIEKEMTQYFGIQRCIVVAGDSDIQKKVLSDFGDVLTNTLNLLLPNGENTIAVMGGTTMAMVAENMGSLETEKRHNLFVPARGGIGEAVSVQANSISAVMANKTGGNYRALYVPEQLSRETYNSLLQEPSIQEVLTLISHANCVVHSIGRALHMAARRKMSDDEMVMLKQKNAVAESFGYFFDEEGKVVYKIPRIGLQLKNLQEIPYVVAIAGGKTKAKAIRAYMKNAPKQTWLITDEAAANEILK”: the protein production entry is “not failed”.

“MNNQEKNMLGFNQDEYLTSAREIIAARQKAEQVADEIYQAGFSSLFFASVGGSLAPMMAINEFAKELTTLPVYVEQAAELIHKGNKRLNKDSVVITLSKSGDTKESVAIAEWCKAQGIRVVAITKNADSPLAQAATWHIPMRHKNGVEYEYMLLYWLFFRVLSRNNEFASYDRFASQLEILPANLLKAKQKFDPQADAIASRYHNSDYMMWVGGAEMWGEVYLFSMCILEEMQWKRTRPVSSAEFFHGALELLEKDVPLILVKGEGKCRALDERVERFASKITDNLVVIDPKAYALDGIDDEFRWIMAPCVVSTLLVDRLAAHFEKYTGHSLDIRRYYRQFDY”: the protein production result is on record as “not failed”.

Consider “MEFMHDKSAEDEGITLVSEPMDTTVATHESRRNAAAFSSVVAPTTDDEIVHERFDPAFEVQADFYGFDENAPPLPLPEEYYSELPLPEEDRQYIPPPPALIPVEPETTFRRPRTRQQRRTESQLVQPVSVATYEDSKASLRVLMQQLPPPGDNVVARIPKRTHRVVRTLPPTFGTTKREENFYGFSKTAISWRKTRASWRHFCLLING”, for which the protein production entry was “failed”.

Consider “MKQEETKRYESFKREFFHWFLAFSGDEPFSVAAGELLMMLKEELALQQAVLYLFDPSCDAFCPEAAAGRMPAAESIVAEEKQEIVVIDDGGPCIVVRLFFLLSEETRAMLELMYGKERHIDREWLKVLRTDLSSLFRKLSALSQRTSEENRYEQLHRFAAKIHSTMQIDDVLEEIICTLQNVYPAFTYHLLLSHDNHVCGNLPIKTLALDESEGQPAALRAFLTGQVQCEETAAPPRSVLYAPIKGVQAVYGVIQIIAPYAAPFPKREINFISLLAGTAGRALENAKLYEQSRRLVADLQLINDTMRQLNARPRLCEAIEYMVSQIKESFGADEVGFFLFADGKRELLRGSTPFFYNDLSALYVEWVEARLLSGNDILFAGDVRTSDFGPFRSIMAAPMMQNKEMKGVCIVLAYETYRFTFEMFKLLQSLVQHSTLAFMNAILREELEKLVVTDYLTKLYTRRYLDEAIQKSMEEDALGSFLLIDIDNFKQINDTYGHQTGDDVLVQVAKMIRTNIRDGDIAARWGGEELAVYLPKVALLDAIAIARRIVEKVREHTVPSVTVSCGLSSWRRHDHDDAEQLFKRADAALYMAKETGKNAIFVHDGDHLYRG”, for which the protein production entry was “failed”.
